Measured values: patent US20240042032A1 (TENEOBIO, published 2024)

Molecular target: T1, human CD19 on CD19+ cells (Raji, Daudi, Ramos, SU-DHL-10, Nalm6) (human, UniProt P15391 20-556)
T1 construct: whole, on cells; also called B-Lymphocyte Surface Antigen B4
T1 sequence (looked up): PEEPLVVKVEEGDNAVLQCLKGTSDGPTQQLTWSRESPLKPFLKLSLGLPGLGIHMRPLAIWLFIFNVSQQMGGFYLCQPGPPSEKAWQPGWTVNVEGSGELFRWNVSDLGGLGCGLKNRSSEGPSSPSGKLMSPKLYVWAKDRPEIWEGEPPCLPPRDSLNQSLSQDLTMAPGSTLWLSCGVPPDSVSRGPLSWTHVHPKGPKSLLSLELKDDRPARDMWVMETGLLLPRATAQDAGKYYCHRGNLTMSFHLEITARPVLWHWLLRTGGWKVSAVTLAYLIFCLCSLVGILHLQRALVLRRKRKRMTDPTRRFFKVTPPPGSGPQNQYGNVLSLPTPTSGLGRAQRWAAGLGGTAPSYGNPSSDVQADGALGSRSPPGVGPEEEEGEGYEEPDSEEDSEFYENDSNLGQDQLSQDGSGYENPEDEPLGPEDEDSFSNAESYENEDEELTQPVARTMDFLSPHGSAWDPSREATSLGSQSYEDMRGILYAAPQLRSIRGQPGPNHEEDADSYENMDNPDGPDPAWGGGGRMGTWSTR
Assay: cell-binding assay on CD19+ cells

| Binder | binding result |
| --- | --- |
| anti-CD19 heavy chain-only antibody (UniAb) clone ID 370083 (antibody, V domains shown, Heavy chain-only antibody with no light chain, tested as purified UniAb and detected with anti-human IgG; Only the VH is tied to the clone) VH: QVQLVESGGGLVKPGGSLRLSCAASGFTFSDYYMSWIRQAPGKGLEWVSYMSSSGSTIYYADSVKGRFTISRDNAKNSLYLQMTSLRAEDTAVYYCARGGIAATGTWGQGTLVTVSS | binds |
| anti-CD19 heavy chain-only antibody (UniAb) clone ID 370034 (antibody, V domains shown, Heavy chain-only antibody with no light chain, tested as purified UniAb and detected with anti-human IgG; Only the VH is tied to the clone; also called HCAb 370034) VH: QVQLVESGGGLVKPGGSLRLSCAASGFTFSDYYMSWIRQAPGKGLEWVSYMSSSGSTIYYADSVKGRFTISRDNAKKSLYLQMNSLRAEDTAVYYCARGGIAAAGTWGQGTLVTVSS | binds |
